From patent publication US20240309087A1 (SHANGHAI JUNSHI BIOSCIENCES, published 2024)

T1: hCD112R mFC recombinant protein (human; murine, UniProt Q6DKI7 41-160)
T1 construct: range 41-160; expressed in 293E cells; also called hCD112R ECD mFC; hCD112R-ECD-mFC; not shown: murine IgG2a Fc domain (MX2-mFc vector)
T1 sequence (looked up): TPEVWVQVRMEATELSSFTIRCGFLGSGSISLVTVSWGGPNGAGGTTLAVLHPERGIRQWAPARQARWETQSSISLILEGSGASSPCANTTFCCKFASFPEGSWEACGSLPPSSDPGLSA

T2: human CD112R on Jurkat CD112R effector cells (human, UniProt Q6DKI7 1-326)
T2 sequence (looked up): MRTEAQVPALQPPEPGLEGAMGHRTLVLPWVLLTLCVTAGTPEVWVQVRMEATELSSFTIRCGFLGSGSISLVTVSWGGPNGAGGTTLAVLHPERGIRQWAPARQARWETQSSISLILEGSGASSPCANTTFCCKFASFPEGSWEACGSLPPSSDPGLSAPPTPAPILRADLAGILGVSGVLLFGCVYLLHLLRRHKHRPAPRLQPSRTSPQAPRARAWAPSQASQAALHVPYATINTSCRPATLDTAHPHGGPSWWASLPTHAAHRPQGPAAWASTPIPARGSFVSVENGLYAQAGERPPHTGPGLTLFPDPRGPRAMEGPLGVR


Tests used:
[1] = target: T1, hCD112R mFC recombinant protein; experiment: FACS competition, hCD112R mFc on CHO CD112 cells; IC50 COM701/IC50 antibody
Description: (§1) Cells CHO CD112 overexpressing human CD112 were co-incubated with a hCD112R mFc protein solution (5 μg/mL) prepared in a staining buffer (PBS+1% FBS), and the humanized anti-CD112R antibodies or the control antibodies at different concentrations (initial concentration: 100 μg/mL, 3-fold dilution, 10 concentration gradients) at 4° C. for 30 min. Unbound antibodies were then washed with a staining buffer and the cells were incubated with 1% (v/v) goat anti-mouse IgG Fc fluorescent secondary antibodies (Jackson ImmunoResearch) prepared in a staining buffer at 4° C. for 30 min in the dark. Finally, the cells were collected by using a flow cytometer (BD Canto II), and the fluorescent antibodies bound to the cell surface were detected. Raw data were analyzed by using FlowJo to obtain MFI values, and a four-parameter curve fitting was performed by using GraphPad Prism software to obtain IC₅₀ values. The positive control and the negative control were COM701 (anti-CD112R antibody, Compugen, obtained by expression and purification according to the sequences in US20180280506A1) and the anti-KLH hu-IgG4 antibody, respectively.

[2] = target: T1, hCD112R mFC recombinant protein; experiment: FACS competition, hCD112R mFc on CHO CD112 cells
Description: as §1

[3] = target: T2, human CD112R on Jurkat CD112R effector …; experiment: cell-based or functional assay
[4] = target: T1, hCD112R mFC recombinant protein; experiment: ELISA, coated hCD112R-ECD-mFC
Description: (§2) A plate was coated with a hCD112R-ECD-mFC protein (1.5 μg/mL) at a fixed concentration, and the humanized anti-CD112R antibodies diluted in a gradient (initial concentration: 1 μg/mL, 2.5-fold gradient dilution, 12 concentration gradients in total) were added to bind to the antigen. HRP-conjugated goat anti-human antibody IgG (Fc specific) (Sigma, A0170) was subjected to a 5000-fold dilution and used as a detection antibody for detection. The color development was performed with 0.1 mg/mL TMB, and finally stopped with 2 M hydrochloric acid. The plate was read at 420 nm/620 nm. EC₅₀ was obtained by fitting with a four-parameter logistic regression (4PL) model. The […] were COM701 (anti-CD112R antibody, Compugen, obtained by expression and purification according to the sequences in US20180280506A1) and the anti-KLH hu-IgG4 antibody.

[5] = target: T1, hCD112R mFC recombinant protein; experiment: ELISA, coated hCD112R-ECD-mFC; EC50 COM701/EC50 antibody
Description: as §2

| Relative activity (%) [1] | IC50 [2] | EC50, CD112R/CD112 reporter [3] | Relative activity (%), EC50 COM701/EC50 antibody [3] | EC50 [4] | Relative activity (%) [5] | Binder |
| --- | --- | --- | --- | --- | --- | --- |
| 127% | 2.82 µg/mL | 0.0471 µg/mL | 119% | 0.00404 µg/mL | 150% | Hu32 (antibody, IgG4, V domains shown, humanized IgG4) VH: EVQLVESGGGLVQPGGSLRLSCAASGFTFSSYHMSWVRQAPGKGLELVAAISRDGDSTYYPDTVKGRFTISRDDAENSLYLQMNSLRAEDTAVYYCSRHEDYFGFAMDSWGQGTLVTVSS VL: AIQMTQSPSSLSASVGDRVTITCKASQSVTNDVAWYQQKPGKAPKLLIYYVSNHYTGVPSRFSGSGSGTDFTLTISSLQPEDFATYFCQQAYRSPWTFGQGTKLEIK |
| 94.2% | 4.22 µg/mL | 0.0385 µg/mL | 186% | 0.00295 µg/mL | 144% | Hu4 (antibody, IgG4, V domains shown, humanized IgG4; also called Hu-04) VH: EVQLVESGGGLVQPGGSLRLSCAASGFTFSSYHMSWVRQAPGKGLELVAAINSNDINTYYLDTVKGRFTISRDIAKNSLYLQMNSLRAEDTAVYYCARHEDYYGFAMDYWGQGTLVTVSS VL: DIVMTQSPDSLAVSLGERATINCKASQSVSNDVAWYQQKPGQPPKLLIYYVSHRFTGVPDRFSGSGSGTDFTLTISSLQAEDVAVYFCHQAYRSPWTFGQGTKLEIK |
| 144% | 2.48 µg/mL | 0.0404 µg/mL | 127% | 0.00411 µg/mL | 139% | Hu19 (antibody, IgG4, V domains shown, humanized IgG4) VH: EVQLVESGGGLVKPGGSLRLSCAASGFTFSSYHMSWVRQAPGKGLELVSAISRDGDSTYYPDTVKGRFTISRDDAENSLYLQMNSLRAEDTAVYYCSRHEDYFGFAMDSWGQGTLVTVSS VL: DIVMTQSPDSLAVSLGERATINCKASQSVTNDVAWYQQKPGQPPKLLIYYVSNHYTGVPDRFSGSGSGTDFTLTISSLQAEDVAVYFCQQAYRSPWTFGQGTKLEIK |
| 97% | 3.7 µg/mL | 0.0412 µg/mL | 157% | 0.00403 µg/mL | 165% | Hu25 (antibody, IgG4, V domains shown, humanized IgG4) VH: EVQLVESGGGLVQPGGSLRLSCAASGFTFSSYHMSWVRQAPGKGLELVAAISRDGDSTYYPDTVKGRFTISRDNAKNSLYLQMNSLRAEDTAVYYCSRHEDYFGFAMDSWGQGTLVTVSS VL: DIVMTQSPDSLAVSLGERATINCKASQSVTNDVAWYQQKPGQPPKLLIYYVSNHYTGVPDRFSGSGSGTDFTLTISSLQAEDVAVYFCQQAYRSPWTFGQGTKLEIK |
| 78.6% | 5.06 µg/mL | 0.144 µg/mL | 48.6% | 0.00432 µg/mL | 91% | Hu7 (antibody, IgG4, V domains shown, humanized IgG4; also called Hu-07) VH: EVQLVESGGGLVKPGGSLRLSCAASGFTFSSYHMSWVRQAPGKGLELVSAINSNDINTYYLDTVKGRFTISRDIAKNSLYLQMNSLRAEDTAVYYCARHEDYYGFAMDYWGQGTLVTVSS VL: DIVMTQSPDSLAVSLGERATINCKASQSVTNDVAWYQQKPGQPPKLLIYYVSNHYTGVPDRFSGSGSGTDFTLTISSLQAEDVAVYFCQQAYRSPWTFGQGTKLEIK |

More lines, now with the values behind:

| Binder | Relative activity (%) [1] | IC50 [2] | EC50, CD112R/CD112 reporter [3] | Relative activity (%), EC50 COM701/EC50 antibody [3] | EC50 [4] | Relative activity (%) [5] |
| --- | --- | --- | --- | --- | --- | --- |
| Hu50 (antibody, IgG4, V domains shown, humanized IgG4) VH: EVQLVESGGGLVKPGGSLRLSCAASGFTFSSYHMSWVRQAPGKGLELVSAINSNGINTYYLDTVKGRFTISRDNAKNSLYLQMNSLRAEDTAVYYCARHEDYYGFAMDYWGQGTLVTVSS VL: AIQMTQSPSSLSASVGDRVTITCKASQSVTNDVAWYQQKPGKAPKLLIYYVSNHYTGVPSRFSGSGSGTDFTLTISSLQPEDFATYFCQQAYRSPWTFGQGTKLEIK | 90% | 2.67 µg/mL | 0.0268 µg/mL | 245% | 0.00459 µg/mL | 190% |
| Hu10 (antibody, IgG4, V domains shown, humanized IgG4) VH: EVQLVESGGGLVKPGGSLRLSCAASGFTFSSYHMSWVRQAPGKGLELVSAINSNDINTYYLDTVKGRFTISRDIAKNSLYLQMNSLRAEDTAVYYCARHEDYYGFAMDYWGQGTLVTVSS VL: DIVMTQSPDSLAVSLGERATINCKASQSVSNDVAWYQQKPGQPPKLLIYYVSHRFTGVPDRFSGSGSGTDFTLTISSLQAEDVAVYFCHQAYRSPWTFGQGTKLEIK | 95.5% | 4.17 µg/mL | 0.0377 µg/mL | 199% | 0.00257 µg/mL | 153% |
| Hu58 (antibody, IgG4, V domains shown, humanized IgG4) VH: EVQLVESGGGLVQPGGSLRLSCAASGFTFSSYHMSWIRQAPGKGLELVAAINSNGINTYYLDTVKGRFTISRDNAKNSLYLQMNSLRAEDTAVYYCARHEDYYGFAMDYWGQGTLVTVSS VL: DIVMTQSPDSLAVSLGERATINCKASQSVSNDVAWYQQKPGQPPKLLIYYVSHRFTGVPDRFSGSGSGTDFTLTISSLQAEDVAVYFCHQAYRSPWTFGQGTKLEIK | 74% | 3.25 µg/mL | 0.0216 µg/mL | 277% | 0.00488 µg/mL | 172% |
| Hu49 (antibody, IgG4, V domains shown, humanized IgG4) VH: EVQLVESGGGLVKPGGSLRLSCAASGFTFSSYHMSWVRQAPGKGLELVSAINSNGINTYYLDTVKGRFTISRDNAKNSLYLQMNSLRAEDTAVYYCARHEDYYGFAMDYWGQGTLVTVSS VL: DIVMTQSPDSLAVSLGERATINCKASQSVTNDVAWYQQKPGQPPKLLIYYVSNHYTGVPDRFSGSGSGTDFTLTISSLQAEDVAVYFCQQAYRSPWTFGQGTKLEIK | 97.5% | 2.47 µg/mL | 0.0307 µg/mL | 214% | 0.00495 µg/mL | 176% |
| Hu13 (antibody, IgG4, V domains shown, humanized IgG4) VH: EVQLVESGGGLVKPGGSLRLSCAASGFTFSSYHMSWVRQAPGKGLELVSAISRDGDSTYYPDTVKGRFTISRDNAKNSLYLQMNSLRAEDTAVYYCSRHEDYFGFAMDSWGQGTLVTVSS VL: DIVMTQSPDSLAVSLGERATINCKASQSVTNDVAWYQQKPGQPPKLLIYYVSNHYTGVPDRFSGSGSGTDFTLTISSLQAEDVAVYFCQQAYRSPWTFGQGTKLEIK | 164% | 2.19 µg/mL | 0.0252 µg/mL | 192% | 0.00433 µg/mL | 132% |
| Hu55 (antibody, IgG4, V domains shown, humanized IgG4) VH: EVQLVESGGGLVQPGGSLRLSCAASGFTFSSYHMSWIRQAPGKGLELVAAINSNGINTYYLDTVKGRFTISRDNAKNSLYLQMNSLRAEDTAVYYCARHEDYYGFAMDYWGQGTLVTVSS VL: DIVMTQSPDSLAVSLGERATINCKASQSVTNDVAWYQQKPGQPPKLLIYYVSNHYTGVPDRFSGSGSGTDFTLTISSLQAEDVAVYFCQQAYRSPWTFGQGTKLEIK | 85.7% | 2.81 µg/mL | 0.0223 µg/mL | 302% | 0.00553 µg/mL | 166% |
| Hu31 (antibody, IgG4, V domains shown, humanized IgG4) VH: EVQLVESGGGLVQPGGSLRLSCAASGFTFSSYHMSWVRQAPGKGLELVAAISRDGDSTYYPDTVKGRFTISRDDAENSLYLQMNSLRAEDTAVYYCSRHEDYFGFAMDSWGQGTLVTVSS VL: DIVMTQSPDSLAVSLGERATINCKASQSVTNDVAWYQQKPGQPPKLLIYYVSNHYTGVPDRFSGSGSGTDFTLTISSLQAEDVAVYFCQQAYRSPWTFGQGTKLEIK | 142% | 2.52 µg/mL | 0.0507 µg/mL | 110% | 0.00339 µg/mL | 179% |
